PMC9741643

Tests used:
[1] = biological target: mouse IgG1 kappa anti-CD3 antibody (clone UTH1, BD bioscience 555329) (mouse); test: cross-linking; photo-crosslinking through BpA in PpL: 50-100 uM PpL construct with 1-4 uM antibody in PBS pH7.6, 365 nm light (6.4 mW/cm^2) up to 1 h; products reduced with DTT and read on SDS-PAGE
[2] = biological target: Cetuximab (Selleck Chemicals A2000); test: as above

Substance	yield of conjugated to un-conjugated light chain (by gel intensity) [1]	photoconjugation yield (by gel) [2]
PpL-R33BpA (PpL-linker-FLAG construct with BpA at R33) (designed binder)	30%	–
PpL-R33BpA with linker arm and Sortase A recognition site (PpL with the sortase site only) (designed binder)	–	75%
